Reference: patent US9090686B2, “Antibodies for the treatment of HIV” (Pierre Fabre Medicament, priority 2009, dated 2015)

Tests used:
CXCR4 homodimer = biological target: T1, CXCR4 homodimer (Homo sapiens, UniProt P61073); assay: BRET on HEK293 cells expressing CXCR4/Rluc+CXCR4/YFP; type: cell-based; settings: without SDF-1
T1 construct: expressed in transfected cells; host or cells: HEK293, transient transfection
Description: This functional assay allows to evaluate the conformational changes induced upon SDF-1 and/or 515H7 Mab binding to CXCR4 receptor at the level of CXCR4 homodimer.
(§1) Expression vectors for the investigated interaction partners were constructed as fusion proteins with the corresponding dye (Renilla reniformis luciferase, Rluc and Yellow fluorescent protein, YFP) by applying conventional molecular biology techniques. Two days prior performing BRET experiments, HEK293 cells were transiently transfected with expression vectors coding for the corresponding BRET partners: [CXCR4/Rluc+CXCR4/YFP] to study CXCR4 homodimerization. The day after, cells were distributed in poly-lysine pre-coated white 96 MW plates in complete culture medium [DMEM supplemented with 10% FBS]. Cells were first cultivated at 37° C. with CO2 5% in order to allow cell attachment to the plate. Cells were then starved with 200 μl DMEM/well overnight Immediately prior to the BRET experiment, DMEM was removed and cells were quickly washed with PBS. Cells were then incubated in PBS in the presence or absence of antibody, 10 min at 37° C. prior to the addition of coelenterazine H 5 μM with or without SDF-1 300 nM in a final volume of 50 μl. After incubation for further 10 minutes at 37° C., light-emission acquisition at 485 nm and 530 nm was initiated using the Mithras LB940 multilabel reader (Berthold) (1 s/wavelength/well repeated 15 times at room temperature).
(§2) Calculation of BRET ratio was performed as previously described (Angers et al., 2000): [(emission530 nm)−(emission485 nm)×Cf]/(emission485 nm), where Cf=(emission530 nm)/(emission485 nm) for cells expressing the Rluc fusion protein alone under the same experimental conditions. […] For sake of readability, results are expressed in mi11iBRET units (mBU); mBU corresponds to the BRET ratio multiplied by 1000.
This functional assay allows to evaluate the conformational changes induced upon SDF-1 and/or c515H7 Mab binding to CXCR4 receptor at the level of CXCR4 homodimer.
as §1, with “Cells were then incubated in PBS in the presence or absence of antibody, 10 min at 37° C. prior to the addition of coelenterazine H 5 μM with or without SDF-1 300 nM in a final volume of 50 μl.” left out
as §2, with “milliBRET” for “mi11iBRET”, “1000. […]” for “1000.”

[1] = system: HIV-1 X4 primary isolate KON; assay: Single cycle neutralization assay in human PBMC, isolate KON; type: cell-based; settings: for KON % inhibition of infected cells 90: IC for 90% inhibition, human PBMC
Method: This assay is performed in 36 h using primary isolates KON, MN and 92UG024 concentrated and diluted accordingly to allow the detection 2% infected CD4 T lymphocytes after 2 days of infection.
Twenty-five microliters of various dilutions of Mabs 515H7, c515H7 and 301aE5 were incubated for 1 h at 37° C. with 25 μl of virus. Human PBMC (25 μl) at 20×10^6 cells/ml were added to the Mab/virus mixture in a 96-well plate (U-bottom, Costar 3599) and cultured for 36 h in RPMI 1640 10% FCS and 20 U/ml IL-2 (R&D Systems, Minneapolis, Minn.).
After 2 days of culture, HIV-infected lymphocytes were detected by intracellular staining of viral p24 Ag. Cells were fixed and permeabilized using both Cytofix/Cytoperm and Perm/Wash kits (BD Biosciences) according to the manufacturer and stained with a fluorescent anti-p24 Mab (FITC- or PE-anti-p24, clone KC57; Beckman Coulter/Immunotech, Hialeah, Fla.) used at a 1/160 dilution in Perm/Wash solution added for 15 min at 4° C. After washing in PBS with 3% FBS, PBMC were diluted in 300 μl of PBS before flow cytometry analysis (LSRII; BD Biosciences) with DIVA software (BD Biosciences). The percentage of p24-positive cells in the different samples was determined by gating 20,000 events on a living cell population identified by forward- and side-scatter parameters. The living cell subsets were analyzed with the live/dead solution kit (Invitrogen). The p24 Ag-positive value was obtained after subtraction of background events in mock-infected cells.
(§3) The percent of neutralization was defined as the reduction of p24-positive cells compared with control infected wells with no Mab. The neutralizing titer was defined as the concentration of antibody (interpolated between successive dilutions performed in triplicate) that allows a 90% decrease in the percentage of infected cells.
This assay was performed in 36 h using primary isolate KON concentrated and diluted accordingly to allow the detection 2% infected CD4 T lymphocytes after 2 days of infection.
[…] Human PBMC (25 p.1) at 20×10^6 cells/ml were added to the Mab/virus mixture in a 96-well plate (U-bottom, Costar 3599) and cultured for 36 h in RPMI 1640 10% FCS and 20 U/ml IL-2 (R&D Systems, Minneapolis, Minn.).
as §3, with “[…]” for “a 90%”

T1 sequence (P61073 whole entry): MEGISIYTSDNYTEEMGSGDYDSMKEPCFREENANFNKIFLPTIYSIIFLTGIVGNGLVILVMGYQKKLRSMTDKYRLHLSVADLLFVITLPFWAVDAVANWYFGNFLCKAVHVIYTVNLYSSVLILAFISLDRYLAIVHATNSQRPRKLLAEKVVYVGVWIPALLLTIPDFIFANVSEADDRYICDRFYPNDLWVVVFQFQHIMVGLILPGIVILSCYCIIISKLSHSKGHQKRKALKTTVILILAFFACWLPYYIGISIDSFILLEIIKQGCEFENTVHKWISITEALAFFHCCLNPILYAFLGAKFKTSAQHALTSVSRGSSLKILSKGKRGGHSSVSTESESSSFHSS
T1 sequence (P61073 whole entry): as above

Molecule | modulation of CXCR4/CXCR4 spatial proximity by the Mab itself (CXCR4 homodimer) | inhibition of HIV-1 X4 KON primary isolate replication in PBMC (in words) [1] | KON % inhibition of infected cells 90 [1] [µg/mL]
515H7: murine anti-CXCR4 monoclonal antibody; light chain variable domain SEQ ID No. 7, heavy chain variable domain SEQ ID No. 8 (antibody, listed as Mus musculus, V domains shown) VH: EVNLVESGGGLVQPGGSLRLSCATSGFTFTDNYMSWVRQPPGKALEWLGFIRNKANGYTTDYSASVRGRFTISRDNSQSILYLQMNALRAEDSATYYCARDVGSNYFDYWGQGTTLTVSS VL: DIVMSQSPSSLAVSAGEKVTMSCKSSQSLFNSRTRKNYLAWYQQKPGQSPKLLIYWASARDSGVPARFTGSGSETYFTLTISRVQAEDLAVYYCMQSFNLRTFGGGTKLEIK | able to modulate by themselves CXCR4/CXCR4 spatial proximity | able to inhibit | 15
c515H7: chimeric antibody 515H7: murine variable domains fused to human Ckappa and IgG1/IgG2/IgG4 constant domains; isotype tested not stated (antibody, V domains shown) VH: EVNLVESGGGLVQPGGSLRLSCATSGFTFTDNYMSWVRQPPGKALEWLGFIRNKANGYTTDYSASVRGRFTISRDNSQSILYLQMNALRAEDSATYYCARDVGSNYFDYWGQGTTLTVSS VL: DIVMSQSPSSLAVSAGEKVTMSCKSSQSLFNSRTRKNYLAWYQQKPGQSPKLLIYWASARDSGVPARFTGSGSETYFTLTISRVQAEDLAVYYCMQSFNLRTFGGGTKLEIK | able to modulate by itself CXCR4/CXCR4 spatial proximity | able to inhibit | 20
301aE5: murine anti-CXCR4 monoclonal antibody; light chain variable domain SEQ ID No. 34, heavy chain variable domain SEQ ID No. 35 (antibody, listed as Mus musculus, V domains shown) VH: QVQLKESGPGLVAPSQSLSITCTVSGFSLTDYGVYWVRQPPGKGLEWLGMIWGDGTTDYNSALKSRLSISKDNSKSQVFLKMNTLQTDDTARYYCARGRQFGFDYWGQGTTLTVSS VL: DIVMSQSPSSLAVSAGEKVTMRCKSSQSLFNSRTRKNYLAWYQQKPGQSPKLLIFWASIRESGVPDRFTGSGSGTDFTLTISSVQAEDLAVYYCKQSYNLRTFGGGTKLEIK | able to modulate by themselves CXCR4/CXCR4 spatial proximity | able to inhibit | >150
